From article PMC4355727

Target: FLAG-tagged Rab32 T39N (UniProt Q13637)
Experiment: co-IP

Chain of UniProt Q13637 (Q13637 whole entry T39N): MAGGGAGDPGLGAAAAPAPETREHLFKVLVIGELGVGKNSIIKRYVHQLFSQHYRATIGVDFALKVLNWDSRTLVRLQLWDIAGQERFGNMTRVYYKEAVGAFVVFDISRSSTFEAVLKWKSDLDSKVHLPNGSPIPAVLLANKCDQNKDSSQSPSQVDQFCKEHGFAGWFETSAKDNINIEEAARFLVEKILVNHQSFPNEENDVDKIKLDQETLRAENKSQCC

HA-tagged Drp1 S656A (natural protein)
fraction of the interaction detected with active Rab32 Q85L: 0.25
